Source: doi:10.1101/521658 (bioRxiv, 2019)

Target: T1, 6HIS-Δ38NADKc-1, refolded (A. thaliana, UniProt Q0WUY1 39-534)
T1 sequence (looked up): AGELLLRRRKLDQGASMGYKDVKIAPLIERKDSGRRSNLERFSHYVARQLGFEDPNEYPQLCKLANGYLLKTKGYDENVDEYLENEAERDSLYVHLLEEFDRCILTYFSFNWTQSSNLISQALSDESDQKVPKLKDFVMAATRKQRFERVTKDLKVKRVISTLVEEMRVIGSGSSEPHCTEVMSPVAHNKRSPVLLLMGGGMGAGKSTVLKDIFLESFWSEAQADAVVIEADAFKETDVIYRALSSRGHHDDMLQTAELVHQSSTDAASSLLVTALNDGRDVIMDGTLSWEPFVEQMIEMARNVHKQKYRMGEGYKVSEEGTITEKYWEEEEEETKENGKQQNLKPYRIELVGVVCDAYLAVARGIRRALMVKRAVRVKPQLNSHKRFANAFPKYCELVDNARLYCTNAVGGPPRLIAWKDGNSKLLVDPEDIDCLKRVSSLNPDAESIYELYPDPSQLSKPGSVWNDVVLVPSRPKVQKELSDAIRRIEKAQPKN
Test: enzyme activity titration

Kd: 0.6 to 1 nM
B1: A. thaliana (At) CaM1 (natural protein)
chain: not shown
